{"source": "patent US20250152663A1", "about": "“COMPOSITION FOR PREVENTION OR TREATMENT OF DRY EYE DISEASE COMPRISING HAPLN1” (HAPLNSCIENCE INC., priority 2021, published 2025)", "molecules": {"B1": {"name": "hyaluronan and proteoglycan link protein 1 (HAPLN1) (protein, listed as Homo sapiens)", "chain": "MKSLLLLVLISICWADHLSDNYTLDHDRAIHIQAENGPHLLVEAEQAKVFSHRGGNVTLPCKFYRDPTAFGSGIHKIRIKWTKLTSDYLKEVDVFVSMGYHKKTYGGYQGRVFLKGGSDSDASLVITDLTLEDYGRYKCEVIEGLEDDTVVVALDLQGVVFPYFPRLGRYNLNFHEAQQACLDQDAVIASFDQLYDAWRGGLDWCNAGWLSDGSVQYPITKPREPCGGQNTVPGVRNYGFWDKDKSRYDVFCFTSNFNGRFYYLIHPTKLTYDEAVQACLNDGAQIAKVGQIFAAWKILGYDRCDAGWLADGSVRYPISRPRRRCSPTEAAVRFVGFPDKKHKLYGVYCFRAYN"}}, "key": {"[1]": {"system": "MUC5AC in human conjunctiva epithelial cells (HConEpiC)", "assay": "Anti-MUC5AC fluorescence staining under high osmotic pressure", "type": "cell-based", "description": "First, human conjunctiva epithelial cells (HConEpiC) obtained after 4th passage of culture were seeded onto 24 wells and incubated for 24 hours, and then treated with high osmotic pressure of 450 mOsM simultaneously with the composition of the present disclosure having various concentrations (0, 5, 10, 20, 50, 100, and 200 ng/ml) of the HAPLN1 protein or Cyclosporine A (0.1 μM). After 72 hours of incubation, the cells were immobilized with 4% paraformaldehyde for 30 minutes and washed with a buffer. Subsequently, fluorescence staining was performed by using Anti-MUC5AC (DAPI labels the nuclei)."}, "[2]": {"system": "MUC4 mRNA in human corneal epithelial cells", "assay": "RT-qPCR of mucin mRNA (MUC4) under high osmotic pressure", "type": "cell-based", "conditions": "HCEC, 450 mOsM, 10 to 200 ng/ml, particularly 50 to 200 ng/ml, 24 hours; compared to the untreated group", "description": "First, the human corneal epithelial cells (HCECs, 5th passage) were seeded onto 6 wells at a density of […]. After 24 hours, the HCECs were pre-treated with a medium with different osmotic pressures (314 and 450 mOsM). After 48 hours of incubation, the cells were treated with the composition of the present disclosure having different concentrations of rhHAPLN1 (0, 5, 10, 20, 50, 100, and 200 ng/ml) and Cyclosporine A (0.1 μM), as a control drug, for 24 hours. Then, the cells were washed and sampled to perform RT-qPCR (FIG. 5A).\nTotal mRNA was purified from the HCECs by using a Qiagen kit. A cDNA was synthesized by using the iScript cDNA synthesis kit. Subsequently, RT-qPCR was performed and result data was expressed as relative expression levels (fold) (FIGS. 5B to 5C)."}, "mouse dry eye model": {"system": "mouse dry eye model", "assay": "Corneal fluorescein score, low-humidity+scopolamine-induced dry eye disease model", "type": "in vivo, C57BL/6", "description": "Corneal fluorescein score assay and tear volume assay were respectively performed on eyeballs of mice treated with the compositions of Preparation Examples 1, 2, and 3 prepared in Example 7 above by using a low-humidity+scopolamine-induced dry eye disease (DED) model.\nWhen obtaining experimental animals, inspection and quarantines were carried out by referring the microbiological monitoring report of a test system provided by the supplier and observing the appearance of the experimental animals. Animals with no apparent abnormalities were brought into a vivarium and acclimated for 2 weeks in an animal room where tests were conducted. During the quarantine and acclimation period of 2 weeks, health condition and suitability for the experiment were evaluated, and then healthy animals were selected. By using only the animals with no abnormalities during the quarantine and acclimation period, dry eye disease was induced and the degree of corneal damage was evaluated by corneal fluorescein staining, and the test groups were classified by a Z-array method according to clinical scores. A dry eye disease test group consisted of eyeballs with a corneal fluorescein stain score of 7 to 15, and a sham group (normal) consisted of eyeballs not having a corneal fluorescein stains core of 5 or more. […]"}, "CD45 in lacrimal glands": {"system": "CD45 in lacrimal glands", "assay": "CD45 immunofluorescence in lacrimal gland, mouse dry eye model", "type": "in vivo, C57BL/6", "conditions": "after 16 days of drug treatment", "description": "In this example, expression of CD45 was identified in lacrimal glands in order to identify in vivo anti-inflammatory effect of the HAPLN1 protein-containing composition of the present disclosure. That is, on the 2nd day after 16 days of drug treatment, eyes were enucleated and paraffin blocked. IHC-IF was performed on a section slide, and expression (green) of CD45 was identified by using an Anti-CD45 antibody. FIG. 12B is a graph illustrating quantified expression levels of FIG. 12A."}, "[3]": {"system": "NFκB in human corneal epithelial cells", "assay": "Western blot of NFκB activity under high osmotic pressure", "type": "cell-based", "conditions": "HCEC, 450 mOsM", "description": "In addition, the activity of NFκB that is an important transcription factor in expression of the inflammatory factors was identified by Western blot analysis (FIG. 4B). Preparation of the experiment was performed under the same conditions of those of Cytokine array performed as described above and the ELISA was performed according to the manufacturer's instructions."}}}
{"molecule": "B1", "values": [{"measurement": "numbers of cells secreting MUC5AC, compared with control", "setting": "[1]; 450 mOsM, 10, 20, 50, 100, and 200 ng/ml, 72 hours", "value": "significantly greater than that of the normal control"}, {"measurement": "numbers of cells secreting MUC5AC, compared with Cyclosporine A", "setting": "[1]; 450 mOsM, at some concentrations, vs Cyclosporine A 0.1 μM", "value": "greater than the case treated with Cyclosporine A"}, {"measurement": "expression level of MUC4 (FIG. 5B)", "setting": "[2]", "value": "significantly increased"}, {"measurement": "CFS level compared with Cyclosporine A", "setting": "mouse dry eye model; after 11 days", "value": "reduced the CFS level more than Cyclosporine A"}, {"measurement": "CFS level", "setting": "mouse dry eye model; eye drop 0.5, 5, 50 μg/ml, 5 μL b.i.d., regardless of the concentration", "value": "consistently decreased"}, {"measurement": "expression level of CD45 compared with Cyclosporine A", "setting": "CD45 in lacrimal glands", "value": "reduced the expression level of CD45 more than Cyclosporine A"}, {"measurement": "expression of CD45 in lacrimal glands", "setting": "CD45 in lacrimal glands", "value": "decreased"}, {"measurement": "phosphorylation of NFκB", "setting": "[3]", "value": "reduced"}]}
